Patent US20190112392A1 (Ablynx, published 2019)
Numbering of substitutions follows the chain as printed.

T1: human CD20 on cells (human, UniProt P11836 1-297)
T1 sequence (looked up): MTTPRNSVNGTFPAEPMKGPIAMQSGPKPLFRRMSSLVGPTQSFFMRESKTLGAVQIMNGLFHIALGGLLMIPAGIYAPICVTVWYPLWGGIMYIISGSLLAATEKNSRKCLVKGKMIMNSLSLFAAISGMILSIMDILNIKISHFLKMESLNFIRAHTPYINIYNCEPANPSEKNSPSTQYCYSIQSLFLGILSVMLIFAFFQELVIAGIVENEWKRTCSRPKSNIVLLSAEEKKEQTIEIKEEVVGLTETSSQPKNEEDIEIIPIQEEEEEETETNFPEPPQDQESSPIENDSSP

T2: T cell receptor alpha/beta on purified primary human T cells (human, UniProt P01848 1-140; P01850 1-176)
T2 construct: whole, on cells; also called human primary T cells
T2 TCR alpha (looked up): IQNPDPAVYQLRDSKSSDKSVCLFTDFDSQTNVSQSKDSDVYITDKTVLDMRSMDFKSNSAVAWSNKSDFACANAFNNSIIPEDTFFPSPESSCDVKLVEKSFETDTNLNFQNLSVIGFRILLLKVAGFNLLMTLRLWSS
T2 TCR beta (looked up): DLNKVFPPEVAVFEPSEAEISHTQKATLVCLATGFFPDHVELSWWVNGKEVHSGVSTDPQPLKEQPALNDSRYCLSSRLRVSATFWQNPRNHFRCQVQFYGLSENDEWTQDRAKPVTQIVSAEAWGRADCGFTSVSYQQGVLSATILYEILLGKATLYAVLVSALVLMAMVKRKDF

B1: T017000055 (bispecific antibody)
chain: EVQLVESGGGLVQPGGSLRLSCTFSGGTFSSYTMGWFRQAPGKEREFVAEVRWGGVTTYSNSLKDRFSISEDSVKNAVYLQMNSLKPEDTAVYYCAAVRQMYMTVVPDYWGQGTLVTVSSGGGGSGGGGSGGGGSGGGGSGGGGSGGGGSGGGGSEVQLVESGGGLVQPGGSLRLSCAASGDVHKINILGWYRQAPAKEREMVAHITIGDATDYADSAKGRFTISRDEAKNMVYLQMNSLKPEDTAVYFCRAYSRIYPYNYWGQGTLVTVSSGAADYKDHDGDYKDHDIDYKDDDDKGAAHHHHHH
notes: entry includes the FLAG3-HIS6 tag; also called 20CD019C07-35GS-T0170055A02-FLAG3-HIS6
B2: T017000042 (bispecific antibody)
chain: EVQLVESGGGLVQPGGSLRLSCAASGDVHKINILGWYRQAPAKEREMVAHITIGDATDYADSAKGRFTISRDEAKNMVYLQMNSLKPEDTAVYFCRAYSRIYPYNYWGQGTLVTVSSGGGGSGGGGSGGGGSGGGGSGGGGSGGGGSGGGGSEVQLVESGGGLVQPGGSLRLSCTFSGGTFSSYTMGWFRQAPGKEREFVAEVRWGGVTTYSNSLKDRFSISEDSVKNAVYLQMNSLKPEDTAVYYCAAVRQMYMTVVPDYWGQGTLVTVSSGAADYKDHDGDYKDHDIDYKDDDDKGAAHHHHHH
notes: TCR x CD20 bispecific Nanobody construct (cluster A); entry includes the FLAG3-HIS6 tag; also called T0170055A02-35GS-20CD019C07-FLAG3-HIS6
B3: T017000074 (bispecific antibody)
chain: B2 chain with A23V, I33F, A42G, M47K, T52S, A56Q, A74S, Y98F, N105D
notes: TCR x CD20 bispecific Nanobody construct (cluster A); entry includes the FLAG3-HIS6 tag; also called T0170056G05-35GS-20CD019C07-FLAG3-HIS6
B4: T017000031 (bispecific antibody)
chain: EVQLVESGGGLVQPGGSLRLSCITSGETFKINIWGWYRQAPGKQRELVASLTIGGATNYADSVKGRFTISEDSAKNTVYLQMNSLKPEDTAVYFCNAKSRLYPYDYWGQGTLVTVSSGGGGSGGGGSGGGGSGGGGSGGGGSGGGGSGGGGSEVQLVESGGGLVQPGGSLRLSCTFSGGTFSSYTMGWFRQAPGKEREFVAEVRWGGVTTYSNSLKDRFSISEDSVKNAVYLQMNSLKPEDTAVYYCAAVRQMYMTVVPDYWGQGTLVTVSSGAADYKDHDGDYKDHDIDYKDDDDKGAAHHHHHH
notes: TCR x CD20 bispecific Nanobody construct (cluster B); entry includes the FLAG3-HIS6 tag; also called T0170055C07-35GS-20CD019C07-FLAG3-HIS6
B5: T0170061G01 (VHH)
VHH: EVQLVESGGGLVQPGGSLRLSCAASGEIGRINFYRWYRQAPGNQREVVATITIADKTDYADSAKGRFTISRDESRNMVYLQMSSLKPEDTAVYFCHAGSRLYPYDYWGQGTQVTVSS
notes: Monovalent anti-TCR Nanobody, cluster C; expressed in E. coli as triple Flag, His6-tagged protein; also called T0170PMP061G01; not shown: C-terminal triple Flag-His6 tag of the E. coli-expressed monovalent
B6: T017000051 (bispecific antibody)
chain: EVQLVESGGGLVQPGGSLRLSCTFSGGTFSSYTMGWFRQAPGKEREFVAEVRWGGVTTYSNSLKDRFSISEDSVKNAVYLQMNSLKPEDTAVYYCAAVRQMYMTVVPDYWGQGTLVTVSSGGGGSGGGGSGGGGSGGGGSGGGGSGGGGSGGGGSEVQLVESGGGLVQPGGSLRLSCAASGEIGRINFYRWYRQAPGNQREVVATITIADKTDYADSAKGRFTISRDESRNMVYLQMSSLKPEDTAVYFCHAGSRLYPYDYWGQGTLVTVSSGAADYKDHDGDYKDHDIDYKDDDDKGAAHHHHHH
notes: CD20 x TCR bispecific Nanobody construct (cluster C); entry includes the FLAG3-HIS6 tag; also called 20CD019C07-35GS-T0170061G01-FLAG3-HIS6
B7: T017000038 (bispecific antibody)
chain: EVQLVESGGGLVQPGGSLRLSCAASGEIGRINFYRWYRQAPGNQREVVATITIADKTDYADSAKGRFTISRDESRNMVYLQMSSLKPEDTAVYFCHAGSRLYPYDYWGQGTLVTVSSGGGGSGGGGSGGGGSGGGGSGGGGSGGGGSGGGGSEVQLVESGGGLVQPGGSLRLSCTFSGGTFSSYTMGWFRQAPGKEREFVAEVRWGGVTTYSNSLKDRFSISEDSVKNAVYLQMNSLKPEDTAVYYCAAVRQMYMTVVPDYWGQGTLVTVSSGAADYKDHDGDYKDHDIDYKDDDDKGAAHHHHHH
notes: TCR x CD20 bispecific Nanobody construct (cluster C); entry includes the FLAG3-HIS6 tag; also called T0170061G01-35GS-20CD019C07-FLAG3-HIS6
B8: T017000107 (other)
chain: EVQLVESGGGLVQAGGSLRLSCAASGRTFSSYVMGWFRQATGKEREFVATIAWDSGSTYYADSVKGRFTISRDNAKNTVHLQMNSLKPEDTAVYYCAASYNVYYNNYYYPISRDEYDYWGQGTLVTVSSGGGGSGGGGSGGGGSGGGGSGGGGSGGGGSGGGGSEVQLVESGGGSVQAGGSLRLSCAASGDTYGSYWMGWFRQAPGKEREGVAAINRGGGYTVYADSVKGRFTISRDTAKNTVYLQMNSLRPDDTADYYCAASGVLGGLHEDWFNYWGQGTLVTVSSGGGGSGGGGSGGGGSGGGGSGGGGSGGGGSGGGGSEVQLVESGGGLVQPGGSLRLSCVASGDVHKINFLGWYRQAPGKEREKVAHISIGDQTDYADSAKGRFTISRDESKNMVYLQMNSLKPEDTAVYFCRAFSRIYPYDYWGQGTLVTVSSGAADYKDHDGDYKDHDIDYKDDDDKGAAHHHHHH
notes: EGFR x CEACAM5 x TCR multispecific Nanobody construct; entry includes the FLAG3-HIS6 tag; also called EGFR038G07-35GS-NbCEA5-35GS-T0170056G05-FLAG3-HIS6

Each binder was assayed against T3, T cell receptor alpha/beta on primary cynomolgus T cells (cynomolgus) (assay: cell-based or functional assay).

Row | Binder | IC50, flow cytometry based cynomolgus T cell mediated B cell (Ramos) killing assay [pM]
1 | B1 | 569
2 | B2 | 170
3 | B3 | 240
4 | B4 | 790

Each binder was assayed against T4, human CD3 expressed on HEK293H cells (human, UniProt P04234 22-171; P09693 23-182; P07766 23-207; P20963 22-164) (assay: flow cytometry on HEK293H human CD3 cells, MCF).
T4 construct: also called HEK293H human CD3; HEK293H CD3
Procedure: (§1) Binding of purified monovalent anti-TCR Nanobodies to human TCR(2IAN)/CD3 expressed on HEK293H cells was evaluated and compared with the binding to HEK293H cells transfected with human CD3 in flow cytometry, as outlined in Example 5. Dilution series of anti-TCR Nanobodies starting from 1 μM were applied to the cells. The parental HEK293H cell line was included as TCR/CD3 negative cell line.

T4 sequence (P04234 22-171 limits assumed, chain 1 of 4): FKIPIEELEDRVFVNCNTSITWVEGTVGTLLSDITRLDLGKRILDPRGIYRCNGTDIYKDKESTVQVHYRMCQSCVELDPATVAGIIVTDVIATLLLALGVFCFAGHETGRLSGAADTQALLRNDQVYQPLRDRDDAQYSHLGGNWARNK
T4 sequence (P09693 23-182 limits assumed, chain 2 of 4): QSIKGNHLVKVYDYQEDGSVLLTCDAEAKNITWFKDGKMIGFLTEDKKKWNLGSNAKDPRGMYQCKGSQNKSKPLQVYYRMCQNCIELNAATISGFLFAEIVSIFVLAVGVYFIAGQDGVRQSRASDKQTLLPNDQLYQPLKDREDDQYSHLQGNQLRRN
T4 sequence (P07766 23-207 limits assumed, chain 3 of 4): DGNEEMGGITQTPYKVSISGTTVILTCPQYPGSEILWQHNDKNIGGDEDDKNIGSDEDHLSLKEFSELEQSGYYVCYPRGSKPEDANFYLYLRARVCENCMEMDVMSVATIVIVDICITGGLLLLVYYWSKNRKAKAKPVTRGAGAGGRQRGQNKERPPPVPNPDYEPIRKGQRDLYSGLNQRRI
T4 sequence (P20963 22-164 limits assumed, chain 4 of 4): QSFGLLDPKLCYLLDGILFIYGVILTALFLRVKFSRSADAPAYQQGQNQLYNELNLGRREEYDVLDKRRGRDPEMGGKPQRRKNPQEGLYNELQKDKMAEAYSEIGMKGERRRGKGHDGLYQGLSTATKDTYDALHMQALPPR

Row | Binder | binding result
5 | B5 | no binding (tested: 1e-6 M)

Each binder was assayed against T1, human CD20 on cells (assay: cell-based or functional assay).

Row | Binder | IC50, xCELLigence human T cell mediated CHO-K1 CD20 killing assay, E:T 30:1, 44 h [nM]
6 | B1 | 1.4
7 | B6 | 27
8 | B2 | 4.2
9 | B3 | 1.5
10 | B7 | 4.1
11 | B4 | 2.1

Each binder was assayed against T5, EGFR on cells (UniProt P00533 25-1210, limits assumed) (assay: flow cytometry, HER14 cells).
T5 construct: whole, on cells; also called HER14 cells (NIH3T3 transfected with EGFR); EGFR on LS174T and LoVo cells

Row | Binder | EC50 [nM] | Top
12 | B8 | 1.6 | 146000

Molecular target: T1, human CD20 on cells
Assay: cell-based or functional assay
Remark: another data set of the same source

Row | Binder | IC50, flow cytometry based human T cell mediated Ramos killing assay, E:T 10:1 [nM]
13 | B1 | 0.53
14 | B6 | 0.57
15 | B2 | 5.7
16 | B3 | 0.92
17 | B7 | 2.7
18 | B4 | 1.1

What follows are binders tested against T5, EGFR on cells (assay: cell-based or functional assay).

Row | Binder | IC50, xCELLigence human T cell mediated killing of HER14 cells, E:T 15, 50-60 h [pM]
19 | B8 | 140

These binders were tested against T1, human CD20 on cells (assay: flow cytometry, Ramos cells).

Row | Binder | EC50 [nM]
20 | B1 | 1.8
21 | B6 | 2.7
22 | B2 | 20
23 | B3 | 16
24 | B7 | 21
25 | B4 | 23

Molecular target: T3, T cell receptor alpha/beta on primary …
Assay: cell-based or functional assay
Remark: another data set of the same source

Row | Binder | IC50, xCELLigence cynomolgus T cell mediated CHO-K1 human CD20 killing assay, E:T 30:1 [pM]
26 | B1 | 990
27 | B2 | 890
28 | B3 | 120
29 | B4 | 1200

Each binder was assayed against T4, human CD3 expressed on HEK293H cells (assay: flow cytometry, HEK293H human CD3 cells).
Procedure: as §1
Nanobodies clearly bound to human TCR(2IAN)/CD3 expressed on HEK293H but not to the HEK293H cells transfected with human CD3 only, nor to the HEK293H parental cell line. The EC50 values obtained from the dose response curve are depicted in Table C-2.

Row | Binder | MCF at 1 µM [MCF]
30 | B5 | 495

Molecular target: T2, T cell receptor alpha/beta on purified …
Assay: flow cytometry, purified primary human T cells
Procedure: Periplasmic extracts were screened for cell expressed TCR/CD3 binding using human TCR/CD3 transfected CHO-K1 or HEK293H cells and the respective CHO-K1 or HEK293H reference cell line in a mixed cell line setup. To this end, a large batch of the reference cell lines were labelled with 8 μM PKH26 and frozen. 5×10⁴ PKH labelled reference cells were mixed with 5×10⁴ target cells and incubated with periplasmic extracts for 30 min at 4′C, and washed 3 times. […] Samples were washed, resuspended in FACS Buffer (D-PBS from Gibco, with 10% FBS from Sigma and 0.05% sodium azide from Merck) and then analysed via a BD FACSArray. […] In this gate, 20,000 cells were counted during acquisition. Based on PKH26-SSC distribution, the PKH labelled parental population and the human TCR/CD3 unlabelled target population was selected. For these 2 populations the mean APC value was calculated.
Binding of purified monovalent anti-TCR Nanobodies to human TCR(2XN9)/CD3 expressed on CHO-K1 cells and to purified primary human T cells was evaluated in flow cytometry as outlined in Example 4.1.

Row | Binder | EC50 [nM]
31 | B5 | > 100

Molecular target: T2, T cell receptor alpha/beta on purified …
Assay: flow cytometry, purified primary human T cells
Remark: another data set of the same source

Row | Binder | EC50 [nM]
32 | B1 | 130
33 | B6 | > 100
34 | B2 | 230
35 | B3 | 190
36 | B7 | > 100
37 | B4 | 350
